This is an account of results in a protein production outcome set (Wang et al. 2014).

The nature of this data set: label from the status in PepcDB records.
“MTGHRPACPPIPADVYTRLERRIGRCHLNQRLGIEHDFEARIFGQGRTFFHIENWNRLHTLLRRLLKLSLLYRPGQRAARRIEIRRNEFTLPHLPEAFEGYTLLHISDLHLDMAGDLPDALIRAIGQAGHYDACVLTGDFRARTFGPYRGAIDGLAQVRTHIDKPVFAILGNHDTIRMTPEIEDLGIGVLLNEAREIRQDGASIFLAGVDDPHYYRADNIEKAADPIPQGAVSILLSHSPELYRHAAYADFDIMLCGHTHGGQICLPGGIALTLNARCPRAFGRGYWRYHRMQGYTSAGSGVSILDIRLNCPPEITLHRLSRHRLSKGGCECGGGKGLEHHHHHH”: the protein production result is listed as “not failed”. “MAEHGETTEDGDSEIDYEFLAELSALLGVDAVQLAKSQEEEEHKERMKMKKGFNSQMRSEAKRLKTFETYDTFRSWTPQEMAAAGFYHTGVRLGVQCFCCSLILFGNSLRKLPIERHKKLRPECEFLLGKDVGNIGKYDIRVKRPEKMLRGGKARYHEEEARLESFEDWPFYAHGTSPRVLSAAGFVFTGKRDTVQCFSCGGSLGNWEEGDDPWKEHAKWFPKCEFLQSKISSEEIAQYIQGYGGFVHVTGEHFVNSWVRRELPMVSGRKDIVQCFSCGGCMENWAEGDDPIQEHNKFFPK”: the protein production entry is on record as “failed”. The entry for “MAILVTGSTGTIGSQVLAHLQGHNVEVRALTRSPETAQFPAGVTAVRGDLADPDSVRAALRGVSTLFLLAPNVADELTQAMLTLTVAREAGVKGIVYLSVFGGDGYADVPHFAGKYTVERMIEALDLPATILRPAYFIQNDLRQKDGLLKTGVYGSPIGKKGVSMVDIRDIGEAAAIELLRREQAATPLGRETYALVGPDSLTGEGIATIWREALGRAIRHGGDDLVVMEQRTKTMLPAWHALDLRLMFSRYQTEGAVATADDIERLTKLLGHAPRSYTAFARDAAAQWTKG” is “failed”. Consider “MLVWLSDSQAVALVGLVGGIALGLAARLGRFCTLGAIEDLLYGGSDVRMRMWVLAIGAAMAGSFGLMGLGWLDPGQSYYLSIRWMPLASILGGLMFGYGMALAGNCGYGSIARLGGGDLRAFVIVLVMGVFTYVTLAGPLAPLRNLLFPQIEVAGDLPPGLAHHAHALTGLPVHVIGIGIGLILCLGALSSRDMRQEPKSIFWSLVVAAAIVGGWAGSYWVYQHGFDGLQVVSHSFSAPVGESILYAMTGSVRPLSFAVGSVAGVWAGAFIGSLIKGHFRWEACEDPRELRRQILGAAIMGTGAVIAMGCTVGQGLTAFSLLAISAPVTFLAIFAGAALGLRQLIEGFSAAE”, for which the protein production entry is recorded as “failed”. Consider “MSLRVYVTGNITVDETWSIPDIPKKGASIHGVKVSQDIGGKGANQAIILSRCGIETRLIAATGNDSNGAWIRQQIKNEPLMLLPDGHFNQHSDTSIILNSADGDNAIITTTAAADTFSLDEMIPHMADAVAGDILLQQGNFSLDKTRALFQYARSRGMTTVFNPSPVNPDFCHLWPLIDIAVVNESEAELLQPYGVKTLVITQGAAGAWLVQEGQRQFCPAVPAEALDTTGAGDTFLAVMLASALLRGVAPDALALAHASRAAAITVSRRGTLSAFPGSRELAALLTTDGAEGHHHHHH”, for which the protein production result is on record as “not failed”. With “MASMTMTSSFLPTVSNLPANISSNSRRSLTVVKASGSENTTSLENKKQEQSMKMRRDLVFTAAAAAVCSLAKVAMADDEPKRGTEAAKKKYAPVCVTMPTAKICRN” the entry was “failed”; with “MARESRTNPRAAGRNALGARRFWFVSLAGIVLASGYDILQALQGSAAAAQRLVVPVLLLLWLYRGSDWARWILMVMLLGFGVLNMYLGTGMLRYGVQNWLHIYVFSAFMVATGLYLALAGKDFARYRSHVAARRARRAASQG”, “failed”.

On to “MLLKRSLPKMRWKSWVKPWQQLDWPLFCLPVGVSIFGGLMILSTELKQPVTDWWWHWLIAGIGVFIALFLARCRYDNLLQWHWITYVLTNISLITVMAAGTSAKGAQRWLTIGGFNVQPSEFAKIGVIITLAALLHKHTATRIEDVFRALAITAIPWLLVFVQPDLATSLVFGAIVLGMLYWANANPGWLLLMISPIIAAILFTMSWPLSTPIILFKEIFITPFGVAWAIGMAILGWLTLPWRRFNMGTIGAFSLNLLGGELGIFAWNHVLKEYQKNRLTAFINPEQDPLGSGYHLIQSRIAIGAGEMWGWGLFKGPMTQLNFVPEQHTDFIFSAIGEEFGLFGCLIVLFVFCLICWRLLHVAQTAKDNFGSLLAIGVLSMIIFQLVVNVGMNVGLAPVAGIPLPWMSYGRSAMLTNFIALGIVESVANFRQRQKYYF”, for which the protein production entry is recorded as “failed”. On to “MDTNNNIEKEILALVKQNPKVSLIEYENYFSQLKYNPNASKSDIAFFYAPNQVLCTTITAKYGALLKEILSQNKVGMHLAHSVDVRIEVAPKIQINAQSNINYKAIKTSVKDSYTFENFVVGSCNNTVYEIAKKVAQSDTPPYNPVLFYGGTGLGKTHILNAIGNHALEKHKKVVLVTSEDFLTDFLKHLDNKTMDSFKAKYRHCDFFLLDDAQFLQGKPKLEEEFFHTFNELHANSKQIVLISDRSPKNIAGLEDRLKSRFEWGITAKVMPPDLETKLSIVKQKCQLNQITLPEEVMEYIAQHISDNIRQMEGAIIKISVNANLMNASIDLNLAKTVLEDLQKDHAEGSSLENILLAVAQSLNLKSSEIKVSSRQKNVALARKLVVYFARLYTPNPTLSLAQFLDLKDHSSISKMYSGVKKMLEEEKSPFVLSLREEIKNRLNELNDKKTAFNSSE”, for which the protein production entry is given as “failed”. With “MGFYGGGSMASGRPESTGIDSLGIGKILAVYIKDNENLAIDEDKLQLTAELIRVFSASPGRDIVSQVNEDGGGSFSLSLDLQQFKKISDIENFFINLEDNPKGVIPCMNAAVHKVLFDQWETNEFENVMKINVRLHNYPESSISLKNLRAAYIGKLVTVHGTVVKVSTVKPLVTQMAFDCGKCKTGITREFTDGKFSPPLKCDSHGCKSKTFTPIRSSAQTIDFQKIRVQELQKPEDHEEGRVPRTVECELMEDLVDICIPGDVVTVTGIIGVINNYMDIGGGKSKTKNQGFYYLFIEAVSVKNTKRQSAFENSEDSSSSAQTADVGDLYSFSQRDLEFIVKFKEEYGSDTFRRILHSVCPSIYGHEIVKAGITLSLFGGVRKHSMDRNKVPVRGDIHVIIVGDPGLGKSQLLQAAAAISPRGIYVCGNATTRAGLTVAVVKDSMTNDYAFEAGAMVLADGGLCCIDEFDKMTTEHQALLEAMEQQCVSVAKAGLVASLSARTSVIAAANPVGGHYNRAKTVNENLKMSAALLSRFDLVFILLDKPDELLDKQVSEHIMSHHRMLGMQTCMQKGILYFQDCGWTLRKMTTFLRFLANCLGNIFPMHGILMSKDAGEIIQKFYLKLRDHNTSADSTPITARQLESLVRLAQARARVDLREEITVQDAMDVVEIMKESLYDKLIDEHGVVDFGRSGGMSQQKEAKRFLSALDKQSELQQKDCFSVSEMYSLADRIGLRVPDIDTFLENLNIAGYLLKKGPKTYQVLSSSYSRSQSSRSR” the entry was “failed”.

For “MELLIRTEQLLLQNEKNWELYLSNREEEKPFDFYKDMKPFVDEAKRCADDFLELAIPWVNTERPPYLGELQLRQACDNVQMTAVSAFNGRSFYKHFLDHYQSTKYTLTRVRDFLKRKEESM”, the protein production entry is “not failed”.

Consider “MSSLNNEEWDLLISGKKATLQYPIPLLCYPAPEVVSIAQIIDHTQLSLSATGSQIDVLCAEAKEYGFATVCVRPDYVSRAVQYLQGTQVGVTCVIGFHEGTYSTDQKVSEAKRAMQNGASELDMVMNYPWLSEKRYTDVFQDIRAVRLAAKDAILKVILETSQLTADEIIAGCVLSSLAGADYVKTSTGFNGPGASIENVSLMSAVCDSLQSETRVKASGGIRTIEDCVKMVRAGAERLGASAGVKIVNETRLGNRQVDEPMEPTNY”, for which the protein production result is “not failed”. For the sequence “MSADIEHIRQIMREADCLYTEAEVDAAIARVGAQINAELADRNPVVFCVMNGGLIFSGKLLTHLNFPLEASYLHATRYRNETTGGDLFWKAKPEVSFIDRDVLIIDDILDEGHTLGAIIDFCKHAGARAVHTAVLIDKDHDRKARPDLKADYVGLPCIDRYIFGFGMDYKGYWRNAAGIYAVKG”, the protein production result is “failed”. With “SNQEKLQRTMIHFNNPEVQAFLAVNTFTITGHGETKQLTEMLRSVLNQLAAVSLTSLRRLAEALPKQSVDGKAPLATGEDDDDDEVPGIMENFDEASKNEAN” the entry was “failed”.

Turning to “GLPAVDSEILEMPPEKADGVVEGIDVNGPKAQLMLRYPDGKREQITLPEQAKLLALVKHVQSKGYPNERFELLTNFPRRKLSHLDYDITLQEAGLCPQETVFVQERN”, the protein production result is “failed”. Consider “MHLKEKITTIIQGQRTGVLSTVRNDKPHSAFMMFFHEDFVLYVATDRQSKKITDIENNPNVHVLLGREGKKLDEDYIEVEGLASIEEDSTLKNKFWNNSLKRWLLRPEDPNYVLIKINPDTIYYIDGAGTTEPEFLRL”, for which the protein production result is “not failed”.

Take “METRFVTPFHHLLVNNLVANITNFTIWFALTFYVYLETKSVFATGMIAGVYLVLTAACGIWFGSLVDHHRKKLAMAGSSLASLLLYALALAVLLLAPKGAIADVGRPWLWALIGLSMLGVIAGNIRTIALPTLVTLLIPEDRRDKANGLVGMVSGVGFLTTSVISGFLVAWGGMLAALTFALGFTVAALVHLLTVPVDEPRVEAEHGAPVAPRRIDLAGTIKVVAAVPGLFALILFATFNNFLGGIFMALLDAYGLSMVSVQAWGLLFGFLSVAFIISGLAISKTGLGKNPLRTLLLVNLISWAVCCVFPLKSSIVMLAMGCFVWMLLGPYAEAAEQTTLQKVVPFERQGRVFGFAQSVEQAASPLTAFLIGPLTQFIVIPFMTHGAGAAAIGDWFGRGPDRGMALVFTLAGVVGLIVTLLAFGSKAYRQLSAAYAQGEPAPAA”: the protein production result was “failed”.

As for “MKQFGGPVLFLDRSDINTDEIIPAKYLTEITKEDLKPYILEDLKLPGFDPKGEKTKTARVVVSRANFGCGSSREHAPWVFEVNGITAVIAESFARIFRQNMFNCGMAAIELSADTIEGLFTYAGCADAAISIDVAGQTLTISGGGTSETHSFDISPFDKALVLAGGWVDYADSKY”, the protein production result was “failed”. Turning to “MKKFKLSSFLPLSYILLLVLVSPLYDVLNKSTVHAVDVTTVVDDWIPFVKAFIIPYLLWFPYLYGALIYYCFADRKQYYVTLSSVIFGKLACFSIYYFWQTTVPRPTVVGTDVFSELVRYIYSIDQPVNCFPSIHVLTTFVIMLAAFKRREQHAFEYYILTFFGTLIILSTLFTKQHAFLDAVSGMTLASILYFGVQLLLAKEPIKVPVKQNHKM”, the protein production entry is reported as “failed”. Regarding “MDVSLPCIKIQVQTRYIEEQSNPEYQRFVFAYLITIKNLSSQTVQLMSRRWLITDADGKQTVVEGDGVVGEQPRIKANDEYTYSSGTALDTPVGVMQGQYLMIDEQGESFTVEIEPFRLAVPHVLN”, the protein production entry was “not failed”. As for “MSTDQTPTAAGSGFSYTLTRTLDAPAARVWQAWTTPDQYAQWAYAVPGSVEMDVRPGGTWKATMRTPDGTEFPLTGSYIEVAEHRALTIGMNVPGRPDPATMTVELAEEGPRNTVITLRQTCDTAEERDGAEQGSGMLLDGLTGFLAGGKQG”, the protein production result is “failed”.

For the sequence “MKKWFPALLFSLCVSGESSAWNNIVFYSLGDVNSYQGGNVVITQRPQFITSWRPGIATVTWNQCNGPEFADGFWAYYREYIAWVVFPKKVMTQNGYPLFIEVHNKGSWSEENTGDNDSYFFLKGYKWDERAFDAGNLCQKPGEITRLTEKFDDIIFKVALPADLPLGDYSVKIPYTSGMQRHFASYLGARFKIPYNVAKTLPRENEMLFLFKNIGGCRPSAQSLEIKHGDLSINSANNHYAAQTLSVSCDVPANIRFMLLRNTTPTYSHGKKFSVGLGHGWDSIVSVNGVDTGETTMRWYKAGTQNLTIGSRLYGESSKIQPGVLSGSATLLMILP”, the protein production entry was “not failed”.
